Results from patent publication US20220211858A1, “TUBULAR SUPRAMOLECULAR POLYMERS” (priority 2019, published 2022).
Like-named read-outs stand apart in the source and are kept apart here.

Legend:
[1] = TEM / cryo-TEM imaging of self-assembled nanostructures (dimensions); assay type: physicochemical; conditions: 2 mM in water
[2] = Circulation studies of SAPDs in rats; assay type: in vivo, Sprague Dawley (SD) rats; conditions: 10 mg/kg i.v.
Description: Circulation studies of SAPDs in rats. Female Sprague Dawley (SD) Rats (200-250 g) were randomly grouped into four groups with three rats in each group. SAPDs were all intravenously (i.v.) dosed at 10 mg/kg (CPT equivalent). The dosing volumes of SAPDs were estimated by a ratio of 1 mL for a 200 g rat. The blood samples were collected at 5 min, 15 min, 30 min, 1 h, 2 h, 4 h, 8 h, and 12 h, which were immediately centrifuged to take plasma for further analysis and stored at −80° C. The plasma proteins were precipitated using similar protocols as mentioned above in drug release section and the determination of SAPDs and free CPT in the plasma by UPLC also used the same conditions.
Estimation of SAPD concentration in plasma upon injection. To calculation the concentration after dilution, we simply set the following parameters: body weight of mice (20 g), dosing volume of mice (200 μL), blood volume of mice (1.8 mL), body weight of rat (200 g), dosing volume of mice (1 mL), blood volume of mice (18 mL) and the dosage for both mice and rats (10 mg/kg).

[3] = Maximum tolerated dose (MTD) dose escalation study; assay type: in vivo, athymic nude mice; conditions: for Maximum % BW loss: n=3
Description: Maximum tolerated dose (MTD) studies. MTD of SAPD 1 has been previously determined in our lab (Table 1). MTDs of other SAPDs were determined by dose escalation studies in healthy female athymic nude mice (Charles River, 12-13 weeks old). A single intravenous (i.v.) injection of SAPD was dosed at day 1 and the body weights of each mouse (n=3) were recorded every day for six days and every the other day until two weeks. The dosing volume was determined based upon a ratio of 200 μL for a 20 g mouse. Doses of SAPDs used in the studied were 108, 72, 54, 45, 36 and 18 mg/kg (CPT equivalent).

HT-29 cells = test system: HT-29 cells
Description: Antitumor efficacy study of SAPDs at the same dose on a HT-29 tumor model. […] When the averaged tumor size reached 75-95 mm^3, mice were randomly divided into six groups. […] The tumor volumes and body weights were monitored and recorded every two or three days. The tumor volume was estimated by measuring the length and width with calipers and using the equation “tumor volume=(length×width^2)/2”. Mice were euthanized once the tumor volume reached 1000 mm^3.

[4] = Critical micellization concentration (CMC) via Nile Red encapsulation; assay type: physicochemical; conditions: SAPDs, PBS buffer, Nile Red method
Description: Nile Red is a hydrophobic, solvatochromic dye that fluoresces intensely upon exposure to hydrophobic environments compared with its strongly quenched and red-shifted fluorescence in aqueous environments. The CMC of the TTs was determined by incubating these molecules at various concentrations with a fixed content of Nile Red. 10 μL of a 1 mM Nile Red stock solution in acetone was added to each microcentrifuge tube to be used, with the acetone allowed to evaporate in a dark area. TT solutions of various concentrations were subsequently added to the Nile Red containing tubes and equilibrated overnight. The emission spectrum for each sample was then recorded on a Fluorolog spectrofluorometer (Horiba Jobin Yvon Inc., Edison, N.J.), acquiring between 580 and 720 nm with an excitation wavelength of 550 nm.
CMC Measurement of SAPDs of TT1. We next assessed the CMC values for each of the designed SAPDs in aqueous solution. […] Experimentally, the CAC is often measured using spectrometry techniques such as circular dichroism (CD) to reveal the presence of intermolecular associations and packing at a much lower concentration. In the case reported here, the CMC values were measured in the PBS buffer using Nile Red as a probe, which fluoresces intensely in hydrophobic environments and is strongly quenched and red-shifted in aqueous media. […]

[5] = female, athymic nude, mouse, in vivo, iv, single i.v. injection, CPT equivalent, healthy athymic nude mice
[6] = single i.v. dose 18 mg/kg (CPT equivalent)
[7] = single i.v. dose 36 mg/kg (CPT equivalent)
[8] = single i.v. dose 45 mg/kg (CPT equivalent)
[9] = single i.v. dose 54 mg/kg (CPT equivalent)
[10] = single i.v. dose 72 mg/kg (CPT equivalent)

Structure (SMILES)	total CPT concentration in plasma ([2]; 1 h) [µM]	total CPT concentration in plasma ([2]; 2 h) [µM]	Survival/Total ([3]; single i.v. dose 18 mg/kg)	day of maximum BW loss ([3]; single i.v. dose 18 mg/kg) [days]	Maximum % BW loss [3, 6] [%]	Survival/Total ([3]; single i.v. dose 36 mg/kg)	day of maximum BW loss ([3]; single i.v. dose 36 mg/kg) [days]	Maximum % BW loss [3, 7] [%]	Survival/Total ([3]; single i.v. dose 45 mg/kg)	day of maximum BW loss ([3]; single i.v. dose 45 mg/kg) [days]	Maximum % BW loss [3, 8] [%]	Survival/Total ([3]; single i.v. dose 54 mg/kg)	day of maximum BW loss ([3]; single i.v. dose 54 mg/kg) [days]	Maximum % BW loss [3, 9] [%]	Survival/Total ([3]; single i.v. dose 72 mg/kg)	day of maximum BW loss ([3]; single i.v. dose 72 mg/kg) [days]	Maximum % BW loss [3, 10] [%]	Survival/Total ([3]; single i.v. dose 108 mg/kg)	MTD [3, 5] [mg/kg]	mean tumor volume (HT-29 cells; mouse, in vivo) [mm^3]	further results
CC[C@]1(OC(=O)OCCSSC[C@@H](NC(C)=O)C(=O)N[C@@H](CCCCNC(=O)[C@@H](CSSCCOC(=O)O[C@]2(CC)C(=O)OCc3c2cc2n(c3=O)Cc3cc4ccccc4nc3-2)NC(C)=O)C(=O)N[C@@H](CCCCNC(=O)CCOCCOCCOCCOCCOC)C(=O)N[C@@H](CCCCNC(=O)CCOCCOCCOCCOCCOC)C(=O)N[C@@H](CCCCNC(=O)CCOCCOCCOCCOCCOC)C(=O)N[C@@H](CCCCNC(=O)CCOCCOCCOCCOCCOC)C(N)=O)C(=O)OCc2c1cc1n(c2=O)Cc2cc3ccccc3nc2-1 [SAPD 2]	7.0	2.2	3/3	5	6.2	3/3	6	2.1	3/3	2	4.0	3/3	2	3.5	2/3	2	11.4	0/3			length of filaments (majority) [1]: less than 400 nm; CPT remained in the bounded form ([2]; 5 min): 28%; MTD at 2 weeks [3, 5]: 54 mg/kg; median survival (HT-29 cells; SAPDs 10 mg/kg i.v. days 1, 5, 9, 13, irinotecan 100 mg/kg i.p. days 1, 8, 15): 46 days; mean tumor volume (HT-29 cells; day 25, SAPDs 10 mg/kg (CPT equivalent) i.v. days 1, 5, 9, 13, irinotecan 100 mg/kg i.p. days 1, 8, 15): 255 mm^3; CMC [4]: 10.1 µM
CC[C@]1(OC(=O)OCCSSC[C@@H](NC(C)=O)C(=O)N[C@@H](CCCCNC(=O)[C@@H](CSSCCOC(=O)O[C@]2(CC)C(=O)OCc3c2cc2n(c3=O)Cc3cc4ccccc4nc3-2)NC(C)=O)C(=O)N[C@@H](CCCCNC(=O)CCOCCOCCOCCOCCOC)C(=O)N[C@@H](CCCCNC(=O)CCOCCOCCOCCOCCOC)C(=O)N[C@@H](CCCCNC(=O)CCOCCOCCOCCOCCOC)C(=O)N[C@@H](CCCCNC(=O)CCOCCOCCOCCOCCOC)C(=O)N[C@@H](CCCCNC(=O)CCOCCOCCOCCOCCOC)C(=O)N[C@@H](CCCCNC(=O)CCOCCOCCOCCOCCOC)C(N)=O)C(=O)OCc2c1cc1n(c2=O)Cc2cc3ccccc3nc2-1 [SAPD 3]	2.8	1.3	3/3	4	5.5	3/3	4	1.4	3/3	4	2.5	3/3	1	1.6	3/3		0	2/3	72	304	median survival (HT-29 cells; mouse, in vivo): 42 days
CC[C@]1(OC(=O)OCCSSC[C@@H](NC(C)=O)C(=O)N[C@@H](CCCCNC(=O)[C@@H](CSSCCOC(=O)O[C@]2(CC)C(=O)OCc3c2cc2n(c3=O)Cc3cc4ccccc4nc3-2)NC(C)=O)C(=O)N[C@@H](CCCCNC(=O)CCOCCOCCOCCOCCOC)C(=O)N[C@@H](CCCCNC(=O)CCOCCOCCOCCOCCOC)C(=O)N[C@@H](CCCCNC(=O)CCOCCOCCOCCOCCOC)C(=O)N[C@@H](CCCCNC(=O)CCOCCOCCOCCOCCOC)C(=O)N[C@@H](CCCCNC(=O)CCOCCOCCOCCOCCOC)C(=O)N[C@@H](CCCCNC(=O)CCOCCOCCOCCOCCOC)C(=O)N[C@@H](CCCCNC(=O)CCOCCOCCOCCOCCOC)C(=O)N[C@@H](CCCCNC(=O)CCOCCOCCOCCOCCOC)C(N)=O)C(=O)OCc2c1cc1n(c2=O)Cc2cc3ccccc3nc2-1 [SAPD 4]	4.7	1.0	3/3	5	3.1	3/3	2	7.2	3/3		0	3/3	3	3.9	2/3	1	1.2	1/3	72	286	median survival (HT-29 cells; mouse, in vivo): 47 days
